Bridges are numbered along the chain shown (N, C = ends). Where no end group is shown, it is not given here. 99mTc‑Chelate II = tetraamine chelate labelled with 99mTc, on the N-terminus
How the values were obtained:
[1] = target: collagen type I (Homo sapiens, UniProt P02452+P08123); assay: In vitro binding to collagen type I coated plate
Protocol: A Maxisorp plate was incubated overnight at 4° C. with 50 μL or 100 μL 0.1 mg/mL collagen type I. All solutions were removed from the wells using a pipette. Wells were washed twice with 200 μL PBS, and then incubated with 150 μL PBS containing 0.1% BSA for 30 minutes at room temperature. Wells were washed five times with 200 μL PBS, and then 90 μL PBS was added to each well. 10 μL of neat (and two-fold serially diluted in PBS) Imaging Agent 1 was added to the wells in quadruplicate. The plate was sealed and incubated for 1 hour at 37° C.
The wells were washed seven times with ice-cold PBS (200 μL); and then the wells were transferred to a glass vial and counted (measured) for ^99mTc-activity using a Wallac counter for a 60 s count for each sample.
FIG. 1 illustrates binding of Imaging Agent 1 to collagen type I coated wells from one experiment.

[2] = target: collagen type I; assay: saturation binding of 99mTc-labelled peptide to collagen type I coated Maxisorp wells, one-site hyperbola fit

Sequence of collagen type I (Homo sapiens, UniProt P02452+P08123) (P02452 162-1218 limits assumed): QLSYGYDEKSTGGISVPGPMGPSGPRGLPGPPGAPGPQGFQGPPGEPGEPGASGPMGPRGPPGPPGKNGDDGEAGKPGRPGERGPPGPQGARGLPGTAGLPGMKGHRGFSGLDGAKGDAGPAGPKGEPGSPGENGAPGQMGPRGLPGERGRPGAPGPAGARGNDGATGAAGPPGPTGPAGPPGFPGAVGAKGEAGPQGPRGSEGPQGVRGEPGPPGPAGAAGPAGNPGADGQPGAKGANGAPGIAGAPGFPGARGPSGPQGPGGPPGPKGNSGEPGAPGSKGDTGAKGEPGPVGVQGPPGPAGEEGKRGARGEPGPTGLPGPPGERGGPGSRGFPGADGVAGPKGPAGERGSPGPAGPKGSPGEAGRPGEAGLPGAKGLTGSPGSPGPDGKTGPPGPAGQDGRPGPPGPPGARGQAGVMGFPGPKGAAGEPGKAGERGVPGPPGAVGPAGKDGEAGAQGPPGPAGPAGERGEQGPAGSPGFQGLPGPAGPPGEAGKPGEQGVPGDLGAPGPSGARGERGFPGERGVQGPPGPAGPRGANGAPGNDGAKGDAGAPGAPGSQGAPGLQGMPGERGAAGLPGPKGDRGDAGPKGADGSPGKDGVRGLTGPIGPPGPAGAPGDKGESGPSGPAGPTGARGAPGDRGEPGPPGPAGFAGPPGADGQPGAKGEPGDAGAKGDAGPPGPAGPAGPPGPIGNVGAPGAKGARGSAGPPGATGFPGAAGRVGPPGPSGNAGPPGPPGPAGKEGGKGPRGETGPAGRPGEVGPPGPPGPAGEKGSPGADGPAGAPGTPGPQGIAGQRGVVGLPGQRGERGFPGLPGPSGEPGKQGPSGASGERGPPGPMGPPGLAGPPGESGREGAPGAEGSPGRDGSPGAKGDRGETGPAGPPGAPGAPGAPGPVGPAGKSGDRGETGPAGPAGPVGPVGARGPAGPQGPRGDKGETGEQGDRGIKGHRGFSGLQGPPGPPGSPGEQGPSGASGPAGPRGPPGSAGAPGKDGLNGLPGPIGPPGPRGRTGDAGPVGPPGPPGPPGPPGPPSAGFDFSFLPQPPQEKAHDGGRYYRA
Sequence of collagen type I (Homo sapiens, UniProt P02452+P08123) (P08123 80-1119 limits assumed): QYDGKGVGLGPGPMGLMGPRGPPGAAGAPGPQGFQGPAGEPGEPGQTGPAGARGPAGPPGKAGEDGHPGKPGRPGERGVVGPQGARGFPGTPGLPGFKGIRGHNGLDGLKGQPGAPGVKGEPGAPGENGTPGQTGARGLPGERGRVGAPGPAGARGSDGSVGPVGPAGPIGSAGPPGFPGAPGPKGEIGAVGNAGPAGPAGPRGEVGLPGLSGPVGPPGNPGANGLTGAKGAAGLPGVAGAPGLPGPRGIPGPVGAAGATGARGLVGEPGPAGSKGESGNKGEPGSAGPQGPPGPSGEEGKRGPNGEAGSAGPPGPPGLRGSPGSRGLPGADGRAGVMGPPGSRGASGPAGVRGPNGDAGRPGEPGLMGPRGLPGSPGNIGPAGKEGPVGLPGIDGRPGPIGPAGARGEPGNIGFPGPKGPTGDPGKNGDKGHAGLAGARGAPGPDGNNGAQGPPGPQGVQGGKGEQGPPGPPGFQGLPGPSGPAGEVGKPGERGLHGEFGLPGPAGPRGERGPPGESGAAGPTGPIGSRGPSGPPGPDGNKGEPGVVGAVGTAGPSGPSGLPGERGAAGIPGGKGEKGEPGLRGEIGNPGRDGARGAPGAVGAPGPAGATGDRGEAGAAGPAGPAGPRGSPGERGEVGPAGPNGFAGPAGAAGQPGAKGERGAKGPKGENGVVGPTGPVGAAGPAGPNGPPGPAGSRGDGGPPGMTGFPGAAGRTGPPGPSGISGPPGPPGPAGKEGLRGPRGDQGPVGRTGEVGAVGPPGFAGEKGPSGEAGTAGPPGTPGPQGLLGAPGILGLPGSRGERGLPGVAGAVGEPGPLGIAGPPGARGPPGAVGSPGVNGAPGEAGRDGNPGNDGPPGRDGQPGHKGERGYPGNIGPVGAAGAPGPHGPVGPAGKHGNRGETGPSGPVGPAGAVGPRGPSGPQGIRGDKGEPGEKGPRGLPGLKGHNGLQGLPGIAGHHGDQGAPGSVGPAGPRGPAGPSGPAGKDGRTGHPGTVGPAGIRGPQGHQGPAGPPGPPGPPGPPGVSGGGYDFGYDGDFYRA

Bmax [2] [attomoles]	Kd [2] [nM]	Molecule	binding to collagen in vitro [1]
		^123I-labelled Ac-CKELNVLYTC-NH2 (disulfide 1-10; also: 123I-labelled) [Imaging Agent 36]	bind with high affinity to collagen in vitro
		^123I-labelled Ac-KELNLVYT-NH2 (also: 123I-labelled) [Imaging Agent 29]	bind with high affinity to collagen in vitro
		^123I-labelled KELNVLYT-NH2 (also: 123I-labelled) [Imaging Agent 35]	bind with high affinity to collagen in vitro
1070	194	{99mTc‑Chelate II}-ANAALKAGELYKCILY-NH2 (also: 99mTc complex) [Imaging Agent 1: [99mTc-Chelate II]-…-NH2]	

Source: patent US8304388B2, “Imaging agents” (GE Healthcare Limited, priority 2006, dated 2012)
